Measurements as given in patent publication CN115536747A (YIKESITE BEIJING PHARMACEUTICAL TECH DEVELOPMENT CO LTD, dated 2022).

Tests used:
[1] = target: T1, TROP2抗原 (TROP2-Fc融合蛋白, Acrobiosystems, 目录号TR2-H5253) (human, UniProt P09758 27-274); experiment: monoclonal phage ELISA, TROP2 antigen coated at 1 μg/ml, positive = more than 3x negative control
T1 construct: not shown: human antibody Fc
T1 sequence (looked up): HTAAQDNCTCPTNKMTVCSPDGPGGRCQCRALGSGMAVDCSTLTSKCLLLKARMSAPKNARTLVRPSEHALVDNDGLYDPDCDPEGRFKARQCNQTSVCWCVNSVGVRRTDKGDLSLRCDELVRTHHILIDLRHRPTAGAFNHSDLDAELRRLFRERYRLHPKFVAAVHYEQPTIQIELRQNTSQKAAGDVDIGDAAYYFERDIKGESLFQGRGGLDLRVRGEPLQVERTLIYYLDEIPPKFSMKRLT

人T细胞的CD3 (CD3+ T细胞) = target: T2, 人T细胞的CD3 (CD3+ T细胞) (human, UniProt P07766 23-207; P04234 22-171; P09693 23-182; P20963 22-164); experiment: flow cytometry on CD3+ T cells, PE anti-human IgG Fc
T2 construct: whole, on cells; also called T细胞表面抗原CD3

[2] = target: T3, 人TROP2 on cells (表达TROP2的CHO细胞系; MCF, MDA-MB-231, MDA-MB-468, HCC1395 breast cancer cells) (human, UniProt P09758 27-323); experiment: flow cytometry on HCC1395 cells, PE anti-human IgG Fc
T3 construct: whole, on cells; also called 细胞膜表面的TROP2抗原; 人细胞表面抗原TROP2
T3 sequence (looked up): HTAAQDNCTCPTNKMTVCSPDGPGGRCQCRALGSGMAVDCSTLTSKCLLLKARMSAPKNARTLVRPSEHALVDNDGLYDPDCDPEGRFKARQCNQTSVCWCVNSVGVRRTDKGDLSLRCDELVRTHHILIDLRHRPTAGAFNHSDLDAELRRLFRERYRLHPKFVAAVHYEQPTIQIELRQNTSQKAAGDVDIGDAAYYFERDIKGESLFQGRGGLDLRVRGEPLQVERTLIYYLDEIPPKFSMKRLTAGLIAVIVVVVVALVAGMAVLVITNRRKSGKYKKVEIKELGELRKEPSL

[3] = target: T3, 人TROP2 on cells (表达TROP2的CHO细胞系; MCF, …); experiment: flow cytometry on MDA-MB-468 cells, PE anti-human IgG Fc
[4] = target: T3, 人TROP2 on cells (表达TROP2的CHO细胞系; MCF, …); experiment: flow cytometry on MDA-MB-231 cells, PE anti-human IgG Fc
[5] = target: T3, 人TROP2 on cells (表达TROP2的CHO细胞系; MCF, …); experiment: flow cytometry on MCF cells, PE anti-human IgG Fc
[6] = target: T4, Human TROP-2 (人TROP2蛋白, SPR antigen) (human, UniProt P09758 27-274, limits assumed); experiment: SPR, IgG
T4 construct: The construct used in SPR is not described
T4 sequence (looked up): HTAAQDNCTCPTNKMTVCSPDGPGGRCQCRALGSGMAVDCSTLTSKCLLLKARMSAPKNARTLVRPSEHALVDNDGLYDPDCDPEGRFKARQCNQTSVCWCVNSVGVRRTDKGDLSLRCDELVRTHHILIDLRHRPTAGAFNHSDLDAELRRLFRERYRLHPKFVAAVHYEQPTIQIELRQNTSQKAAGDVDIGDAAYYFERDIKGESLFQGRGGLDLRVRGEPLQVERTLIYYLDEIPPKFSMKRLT

[7] = target: T5, Rhesus TROP-2 (猴TROP2蛋白, SPR antigen) (Rhesus (the 2nd table); 食蟹猴 (text paragraph 139), UniProt A0A5F8AGB8 27-274); experiment: SPR, IgG
T5 construct: also called 食蟹猴TROP2
T5 sequence: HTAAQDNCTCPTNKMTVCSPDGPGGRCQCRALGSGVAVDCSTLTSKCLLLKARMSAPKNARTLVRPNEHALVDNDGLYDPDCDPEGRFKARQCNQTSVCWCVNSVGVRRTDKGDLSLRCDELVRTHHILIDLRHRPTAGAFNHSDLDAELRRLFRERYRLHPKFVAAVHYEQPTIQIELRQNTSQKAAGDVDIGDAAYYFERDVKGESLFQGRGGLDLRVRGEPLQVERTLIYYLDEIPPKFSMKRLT

[8] = target: T4, Human TROP-2 (人TROP2蛋白, SPR antigen); experiment: ELISA (内在亲和力)
[9] = target: T4, Human TROP-2 (人TROP2蛋白, SPR antigen); experiment: SPR, IgG; reference 1F7
[10] = target: T5, Rhesus TROP-2 (猴TROP2蛋白, SPR antigen); experiment: SPR, IgG; reference 1F7

T2 sequence (P07766 23-207, chain 1 of 4): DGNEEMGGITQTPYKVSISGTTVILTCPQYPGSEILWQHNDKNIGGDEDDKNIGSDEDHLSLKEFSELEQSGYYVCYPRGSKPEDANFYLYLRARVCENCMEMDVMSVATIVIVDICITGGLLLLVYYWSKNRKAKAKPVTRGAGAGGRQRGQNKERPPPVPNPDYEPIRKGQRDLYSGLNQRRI
T2 sequence (P04234 22-171, chain 2 of 4): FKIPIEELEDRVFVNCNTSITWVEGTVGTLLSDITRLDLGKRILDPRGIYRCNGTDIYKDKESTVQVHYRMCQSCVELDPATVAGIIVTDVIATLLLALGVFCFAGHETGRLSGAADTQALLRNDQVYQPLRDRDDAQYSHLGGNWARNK
T2 sequence (P09693 23-182, chain 3 of 4): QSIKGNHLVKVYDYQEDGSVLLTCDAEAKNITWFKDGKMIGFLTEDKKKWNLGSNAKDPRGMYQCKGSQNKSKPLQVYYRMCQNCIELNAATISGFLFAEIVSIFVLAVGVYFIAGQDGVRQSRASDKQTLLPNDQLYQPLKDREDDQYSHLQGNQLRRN
T2 sequence (P20963 22-164, chain 4 of 4): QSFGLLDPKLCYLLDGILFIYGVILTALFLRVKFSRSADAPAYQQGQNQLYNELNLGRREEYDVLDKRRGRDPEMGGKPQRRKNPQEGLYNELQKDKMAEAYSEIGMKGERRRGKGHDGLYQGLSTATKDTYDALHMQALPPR

| Binder | binding result [1] | EC50 (人T细胞的CD3 (CD3+ T细胞)) [µg/mL] | EC50 [2] [µg/mL] | EC50 [3] [µg/mL] | EC50 [4] [µg/mL] | EC50 [5] [µg/mL] | Kd [6] [nM] | koff [6] [s⁻¹] | kon [6] [M⁻¹ s⁻¹] | Kd [7] [nM] | koff [7] [s⁻¹] | kon [7] [M⁻¹ s⁻¹] | Kd [8] [nM] | fold improvement of binding against 1F7 [9] | fold improvement of affinity against 1F7 [10] |
| --- | --- | --- | --- | --- | --- | --- | --- | --- | --- | --- | --- | --- | --- | --- | --- |
| 1F7单链抗体 (scFv shown on M13 phage) (scFv, The phage coat protein fusion is not described; also called hit) scFv: QVQLVQSGAEVKKPGASVKVSCKASGYTFTSYGINWVRQATGRGLEWMGWMNPNSGNTGYAQKFQGRVTITADESTSTAYMELSSLRSEDTAVYYCARPNTGGDGAFDIWGQGTMVTVSSGGSSRSSSSGGGGSGGGGDIQLTQSPSSVSASVGDRVTITCRASQGISSWLAWYRQKPGKAPKLLIYAASSLQSGVPSRFSGSGSGTDFTLTISSLQPEDFATYYCQQANSFPITFGQGTRLEIK | binds |  |  |  |  |  |  |  |  |  |  |  |  |  |  |
| 双特异性抗体F7AK3 (TROP2×CD3, cFIST形式) (bispecific antibody, human IgG4 S228P, kappa, also called F7AK3双抗) heavy: not shown light: DIQLTQSPSSVSASVGDRVTITCRASQGISSWLAWYRQKPGKAPKLLIYRARSLQSGVPSRFSGSGSGTDFTLTISSLQPEDFATYYCQQANSFPVTFGQGTRLEIKRTVAAPSVFIFPPSDEQLKSGTASVVCLLNNFYPREAKVQWKVDNALQSGNSQESVTEQDSKDSTYSLSSTLTLSKADYEKHKVYACEVTHQGLSSPVTKSFNRGEC |  | 0.568 | 0.0532 | 0.0668 | 0.0891 | 0.205 |  |  |  |  |  |  |  |  |  |
| 1F7亲本抗体 (IgG形式) (antibody, V domains shown) VH: QVQLVQSGAEVKKPGASVKVSCKASGYTFTSYGINWVRQATGRGLEWMGWMNPNSGNTGYAQKFQGRVTITADESTSTAYMELSSLRSEDTAVYYCARPNTGGDGAFDIWGQGTMVTVSS VL: DIQLTQSPSSVSASVGDRVTITCRASQGISSWLAWYRQKPGKAPKLLIYAASSLQSGVPSRFSGSGSGTDFTLTISSLQPEDFATYYCQQANSFPITFGQGTRLEIKR |  |  |  |  |  |  | 7.57 | 0.000892 | 118000 | 40.7 | 0.000942 | 23100 | ~7.5 |  |  |
| 突变体F7A (IgG形式) (antibody, V domains shown) VH: QVQLVQSGAEVKKPGASVKVSCKASGYTFTNYGINWVRQATGRGLEWMGWMNPRSGNTGYAQKFQGRVTITADESTSTAYMELSSLRSEDTAVYYCARPNTGGDGAFDIWGQGTMVTVSS VL: DIQLTQSPSSVSASVGDRVTITCRASQGISSWLAWYRQKPGKAPKLLIYRARSLQSGVPSRFSGSGSGTDFTLTISSLQPEDFATYYCQQANSFPVTFGQGTRLEIKR |  |  |  |  |  |  | 4.35 | 0.000834 | 192000 | 12.8 | 0.00165 | 128000 |  | 1.74 倍 | 3.18 倍 |
